This is an account of results in patent publication US20100160556A1 (published 2010).

The target of the experiment is GLP-1 receptor (on a GLP-1 receptor transfected CHO cell line). The experiment is described as follows: cell-based or functional assay.

B1: CM3 (GLP-1(7-37)-IP2, murine IP2) (peptide)
peptide: HAEGTFTSDVSSYLEGQAAKEFIAWLVKGRGRRDFPEEVAIAEELG
With B1, the “IC50 (GLP-1 bioassay, cAMP increase)” value came to 187 µM.

B2: CM3-ANA01 (peptide)
peptide: HAEGTFTSDVSSYLEGQAAKEFIAWLVKGRGAADFPEEVAIAEELG
Regarding B2, the “IC50 (GLP-1 bioassay, cAMP increase)” value is 159 µM.

B3: PEG-CM3-ANA08 (CM3-ANA08 conjugated to unbranched 40 kDa mPEG maleimido propionamide) (peptide)
peptide: HAEGTFTSDVSSYLEGQAAKEFIAWLVKGRGRRDFPEEVAIAEELGC
modifications: unbranched 40 kDa mPEG maleimido propionamide on the free thiol group of the C-terminal cysteine
For the molecule B3, the “ED50 relative to CM3 (GLP-1 bioassay, cAMP increase)” value was approximately 5 times.
